B2: Recombinant LRP cluster II (receptor, UniProt Q07954 805-1184, looked up)
chain: NKCRVNNGGCSSLCLATPGSRQCACAEDQVLDADGVTCLANPSYVPPPQCQPGEFACANSRCIQERWKCDGDNDCLDNSDEAPALCHQHTCPSDRFKCENNRCIPNRWLCDGDNDCGNSEDESNATCSARTCPPNQFSCASGRCIPISWTCDLDDDCGDRSDESASCAYPTCFPLTQFTCNNGRCININWRCDNDNDCGDNSDEAGCSHSCSSTQFKCNSGRCIPEHWTCDGDNDCGDYSDETHANCTNQATRPPGGCHTDEFQCRLDGLCIPLRWRCDGDTDCMDSSDEKSCEGVTHVCDPSVKFGCKDSARCISKAWVCDGDNDCEDNSDEENCESLACRPPSHPCANNTSVCLPPDKLCDGNDDCGDGSDEGELCDQ
notes: domain: cluster II
B3: Plasma-derived FVIII light chain (other, UniProt P00451 1668-2351, looked up)
chain: EITRTTLQSDQEEIDYDDTISVEMKKEDFDIYDEDENQSPRSFQKKTRHYFIAAVERLWDYGMSSSPHVLRNRAQSGSVPQFKKVVFQEFTDGSFTQPLYRGELNEHLGLLGPYIRAEVEDNIMVTFRNQASRPYSFYSSLISYEEDQRQGAEPRKNFVKPNETKTYFWKVQHHMAPTKDEFDCKAWAYFSDVDLEKDVHSGLIGPLLVCHTNTLNPAHGRQVTVQEFALFFTIFDETKSWYFTENMERNCRAPCNIQMEDPTFKENYRFHAINGYIMDTLPGLVMAQDQRIRWYLLSMGSNENIHSIHFSGHVFTVRKKEEYKMALYNLYPGVFETVEMLPSKAGIWRVECLIGEHLHAGMSTLFLVYSNKCQTPLGMASGHIRDFQITASGQYGQWAPKLARLHYSGSINAWSTKEPFSWIKVDLLAPMIIHGIKTQGARQKFSSLYISQFIIMYSLDGKKWQTYRGNSTGTLMVFFGNVDSSGIKHNIFNPPIIARYIRLHPTHYSIRSTLRMELMGCDLNSCSMPLGMESKAISDAQITASSYFTNMFATWSPSKARLHLQGRSNAWRPQVNNPKEWLQVDFQKTMKVTGVTTQGVKSLLTSMYVKEFLISSSQDGHQWTLFFQNGKVKVFQGNQDSFTPVVNSLDPPLLTRYLRIHPQSWVHQIALRMEVLGCEAQDLY
notes: domain: light chain (a3-A3-C1-C2); Prepared from plasma as in the cited literature; Human by context (the peptides are said to cover human FVIII regions); Residue numbers count on mature FVIII, without the signal peptide; also called LCh; 80-kDa light chain (a3-A3-C1-C2)

How the values were obtained:
[1] = target: Purified placenta-derived low-density lipoprotein receptor-related protein (LRP) (UniProt Q07954); test: SPR, immobilised LRP, two-site model, site class 1
[2] = target: Purified placenta-derived low-density lipoprotein receptor-related protein (LRP) (UniProt Q07954); test: SPR, immobilised LRP, two-site model, site class 2
[3] = target: Purified placenta-derived low-density lipoprotein receptor-related protein (LRP) (UniProt Q07954); test: SPR, immobilised LRP, steady-state affinity analysis
[4] = target: B2; test: solid-phase competition: peptide against FVIII light chain (25 nM) binding to immobilised LRP cluster II
Experimental: (§1) Solid-phase Binding Assays—Recombinant LRP clusters II or IV (1 pmol/well) were adsorbed onto microtiter wells in 50 mM NaHCO₃ (pH 9.8) in a volume of 50 μl for 16 h at 4° C. Wells were blocked with 2% (w/v) HSA, 150 mM NaCl, 5 mM CaCl₂, and 50 mM Tris (pH 7.4) in a volume of 200 μl for 1 h at 37° C. […] Bound ligand was detected by incubating with peroxidase-conjugated monoclonal antibody CLB-CAg 12 in the same buffer for 15 min at 37° C. […] Residual FVIII binding was detected as described above.
Half-maximum inhibition constants (IC₅₀) represent the mean values ±S.D. of three experiments.)

[5] = target: T1, Recombinant FVIII/FV^1811-1818 light chain chimera (UniProt P00451 1668-2351); test: SPR (BIAcore), FVIII/FV1811-1818 light chain chimera captured at 20 fmol/mm2 on immobilised scFv EL14, scFv KM41 40 nM as analyte
T1 construct: domain: light chain (a3-A3-C1-C2); The single substitutions were worked out from the two printed octapeptides; In the assays it was captured on immobilised scFv EL14
T1 sequence: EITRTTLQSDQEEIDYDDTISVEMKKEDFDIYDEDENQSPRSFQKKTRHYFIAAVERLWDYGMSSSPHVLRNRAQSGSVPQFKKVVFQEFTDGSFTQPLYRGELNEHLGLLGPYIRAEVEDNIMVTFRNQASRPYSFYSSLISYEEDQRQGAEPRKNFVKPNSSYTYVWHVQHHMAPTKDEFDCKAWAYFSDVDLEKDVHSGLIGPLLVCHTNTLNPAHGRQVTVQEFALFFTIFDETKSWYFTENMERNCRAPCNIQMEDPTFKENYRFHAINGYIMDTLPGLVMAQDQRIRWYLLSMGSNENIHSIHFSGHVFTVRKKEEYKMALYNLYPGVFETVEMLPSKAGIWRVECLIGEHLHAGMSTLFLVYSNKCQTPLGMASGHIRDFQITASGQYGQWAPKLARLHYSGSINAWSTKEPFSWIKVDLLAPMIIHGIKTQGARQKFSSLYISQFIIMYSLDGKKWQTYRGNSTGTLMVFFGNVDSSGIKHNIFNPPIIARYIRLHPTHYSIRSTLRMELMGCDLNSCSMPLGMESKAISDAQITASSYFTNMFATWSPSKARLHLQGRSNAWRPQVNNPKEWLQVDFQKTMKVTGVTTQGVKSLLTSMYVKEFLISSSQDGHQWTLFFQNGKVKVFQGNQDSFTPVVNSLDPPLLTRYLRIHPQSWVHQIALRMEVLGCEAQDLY
Experimental: Response is indicated as Resonance Units (RU) and is corrected for nonspecific binding.
(§2) Surface Plasmon Resonance—The kinetics of protein interactions was determined by surface plasmon resonance (SPR) analysis, employing a BIAcore™2000 biosensor system (Biacore AS, Uppsala, Sweden). […] One control flow-channel was routinely activated and blocked in the absence of protein. […] Dissociation was allowed for 2 min in the same buffer flow. Sensor-chips were regenerated using several pulses of either 100 mM H₃PO₄ or 20 mM EDTA, 1 M NaCl, and 50 mM Hepes (pH 7.4) at a flow rate of 20 μl/min. The association (kₒₙ) and dissociation (koff) rate constants were determined by using the BIAevaluation software 3.1 (Biacore AB, Uppsala, Sweden). Data were corrected for bulk refractive index changes and fitted by nonlinear regression analysis according to a two-site binding model. Equilibrium dissociation constants (kd) were calculated from the ratio koff/kₒₙ. The kd value for low-affinity interactions was estimated using steady-state affinity analysis by using BIAevaluation software.

[6] = target: B3; test: solid-phase competition assay: FVIII light chain (25 nM) on immobilised LRP cluster II (1 pmol/well) in the presence of scFv KM41 (0-100 nM); detection with peroxidase-conjugated CLB-CAg 12
Experimental: FIG. 4. […] Data represent the mean ±S.D. of three experiments. […] Complexes were allowed to form for 30 min before SPR analysis.
as §1

Factor Va light chain = target: T2, Factor Va light chain (human, UniProt P12259 1574-2224); test: SPR (BIAcore), FVa light chain immobilised at 76 fmol/mm2, LRP cluster II 100 nM as analyte
T2 construct: domain: FVa light chain; also called FVa light chain
T2 sequence (looked up): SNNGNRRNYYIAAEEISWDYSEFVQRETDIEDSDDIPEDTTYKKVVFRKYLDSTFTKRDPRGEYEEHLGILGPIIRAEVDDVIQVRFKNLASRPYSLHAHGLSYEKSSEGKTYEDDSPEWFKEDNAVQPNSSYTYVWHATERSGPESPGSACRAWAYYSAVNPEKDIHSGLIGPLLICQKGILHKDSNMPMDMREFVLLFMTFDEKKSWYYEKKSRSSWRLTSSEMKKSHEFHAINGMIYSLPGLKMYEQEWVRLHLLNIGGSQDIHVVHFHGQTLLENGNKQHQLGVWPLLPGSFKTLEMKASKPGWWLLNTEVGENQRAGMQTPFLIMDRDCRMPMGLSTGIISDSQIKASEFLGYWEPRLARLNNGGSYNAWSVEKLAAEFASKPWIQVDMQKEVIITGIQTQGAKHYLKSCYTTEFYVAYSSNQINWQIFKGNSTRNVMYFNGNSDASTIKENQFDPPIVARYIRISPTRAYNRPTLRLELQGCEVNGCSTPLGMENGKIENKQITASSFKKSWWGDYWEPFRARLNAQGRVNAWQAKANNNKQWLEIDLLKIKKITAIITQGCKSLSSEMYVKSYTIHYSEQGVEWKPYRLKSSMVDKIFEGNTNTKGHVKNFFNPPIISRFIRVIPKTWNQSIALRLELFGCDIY
Experimental: Response is indicated as Resonance Units (RU) and is corrected for nonspecific binding, which was less than 5% relative to coated channels.
as §2

[7] = target: B2; test: solid-phase binding assay: serial dilutions of FVIII light chain on immobilised LRP cluster II (1 pmol/well); detection with peroxidase-conjugated CLB-CAg 12
Experimental: FIG. 2. […] Data represent the mean ±S.D. of three experiments
as §1

Purified placenta-derived low-density lipoprotein receptor-related protein (LRP), sequence (Q07954 20-4544, form in doubt): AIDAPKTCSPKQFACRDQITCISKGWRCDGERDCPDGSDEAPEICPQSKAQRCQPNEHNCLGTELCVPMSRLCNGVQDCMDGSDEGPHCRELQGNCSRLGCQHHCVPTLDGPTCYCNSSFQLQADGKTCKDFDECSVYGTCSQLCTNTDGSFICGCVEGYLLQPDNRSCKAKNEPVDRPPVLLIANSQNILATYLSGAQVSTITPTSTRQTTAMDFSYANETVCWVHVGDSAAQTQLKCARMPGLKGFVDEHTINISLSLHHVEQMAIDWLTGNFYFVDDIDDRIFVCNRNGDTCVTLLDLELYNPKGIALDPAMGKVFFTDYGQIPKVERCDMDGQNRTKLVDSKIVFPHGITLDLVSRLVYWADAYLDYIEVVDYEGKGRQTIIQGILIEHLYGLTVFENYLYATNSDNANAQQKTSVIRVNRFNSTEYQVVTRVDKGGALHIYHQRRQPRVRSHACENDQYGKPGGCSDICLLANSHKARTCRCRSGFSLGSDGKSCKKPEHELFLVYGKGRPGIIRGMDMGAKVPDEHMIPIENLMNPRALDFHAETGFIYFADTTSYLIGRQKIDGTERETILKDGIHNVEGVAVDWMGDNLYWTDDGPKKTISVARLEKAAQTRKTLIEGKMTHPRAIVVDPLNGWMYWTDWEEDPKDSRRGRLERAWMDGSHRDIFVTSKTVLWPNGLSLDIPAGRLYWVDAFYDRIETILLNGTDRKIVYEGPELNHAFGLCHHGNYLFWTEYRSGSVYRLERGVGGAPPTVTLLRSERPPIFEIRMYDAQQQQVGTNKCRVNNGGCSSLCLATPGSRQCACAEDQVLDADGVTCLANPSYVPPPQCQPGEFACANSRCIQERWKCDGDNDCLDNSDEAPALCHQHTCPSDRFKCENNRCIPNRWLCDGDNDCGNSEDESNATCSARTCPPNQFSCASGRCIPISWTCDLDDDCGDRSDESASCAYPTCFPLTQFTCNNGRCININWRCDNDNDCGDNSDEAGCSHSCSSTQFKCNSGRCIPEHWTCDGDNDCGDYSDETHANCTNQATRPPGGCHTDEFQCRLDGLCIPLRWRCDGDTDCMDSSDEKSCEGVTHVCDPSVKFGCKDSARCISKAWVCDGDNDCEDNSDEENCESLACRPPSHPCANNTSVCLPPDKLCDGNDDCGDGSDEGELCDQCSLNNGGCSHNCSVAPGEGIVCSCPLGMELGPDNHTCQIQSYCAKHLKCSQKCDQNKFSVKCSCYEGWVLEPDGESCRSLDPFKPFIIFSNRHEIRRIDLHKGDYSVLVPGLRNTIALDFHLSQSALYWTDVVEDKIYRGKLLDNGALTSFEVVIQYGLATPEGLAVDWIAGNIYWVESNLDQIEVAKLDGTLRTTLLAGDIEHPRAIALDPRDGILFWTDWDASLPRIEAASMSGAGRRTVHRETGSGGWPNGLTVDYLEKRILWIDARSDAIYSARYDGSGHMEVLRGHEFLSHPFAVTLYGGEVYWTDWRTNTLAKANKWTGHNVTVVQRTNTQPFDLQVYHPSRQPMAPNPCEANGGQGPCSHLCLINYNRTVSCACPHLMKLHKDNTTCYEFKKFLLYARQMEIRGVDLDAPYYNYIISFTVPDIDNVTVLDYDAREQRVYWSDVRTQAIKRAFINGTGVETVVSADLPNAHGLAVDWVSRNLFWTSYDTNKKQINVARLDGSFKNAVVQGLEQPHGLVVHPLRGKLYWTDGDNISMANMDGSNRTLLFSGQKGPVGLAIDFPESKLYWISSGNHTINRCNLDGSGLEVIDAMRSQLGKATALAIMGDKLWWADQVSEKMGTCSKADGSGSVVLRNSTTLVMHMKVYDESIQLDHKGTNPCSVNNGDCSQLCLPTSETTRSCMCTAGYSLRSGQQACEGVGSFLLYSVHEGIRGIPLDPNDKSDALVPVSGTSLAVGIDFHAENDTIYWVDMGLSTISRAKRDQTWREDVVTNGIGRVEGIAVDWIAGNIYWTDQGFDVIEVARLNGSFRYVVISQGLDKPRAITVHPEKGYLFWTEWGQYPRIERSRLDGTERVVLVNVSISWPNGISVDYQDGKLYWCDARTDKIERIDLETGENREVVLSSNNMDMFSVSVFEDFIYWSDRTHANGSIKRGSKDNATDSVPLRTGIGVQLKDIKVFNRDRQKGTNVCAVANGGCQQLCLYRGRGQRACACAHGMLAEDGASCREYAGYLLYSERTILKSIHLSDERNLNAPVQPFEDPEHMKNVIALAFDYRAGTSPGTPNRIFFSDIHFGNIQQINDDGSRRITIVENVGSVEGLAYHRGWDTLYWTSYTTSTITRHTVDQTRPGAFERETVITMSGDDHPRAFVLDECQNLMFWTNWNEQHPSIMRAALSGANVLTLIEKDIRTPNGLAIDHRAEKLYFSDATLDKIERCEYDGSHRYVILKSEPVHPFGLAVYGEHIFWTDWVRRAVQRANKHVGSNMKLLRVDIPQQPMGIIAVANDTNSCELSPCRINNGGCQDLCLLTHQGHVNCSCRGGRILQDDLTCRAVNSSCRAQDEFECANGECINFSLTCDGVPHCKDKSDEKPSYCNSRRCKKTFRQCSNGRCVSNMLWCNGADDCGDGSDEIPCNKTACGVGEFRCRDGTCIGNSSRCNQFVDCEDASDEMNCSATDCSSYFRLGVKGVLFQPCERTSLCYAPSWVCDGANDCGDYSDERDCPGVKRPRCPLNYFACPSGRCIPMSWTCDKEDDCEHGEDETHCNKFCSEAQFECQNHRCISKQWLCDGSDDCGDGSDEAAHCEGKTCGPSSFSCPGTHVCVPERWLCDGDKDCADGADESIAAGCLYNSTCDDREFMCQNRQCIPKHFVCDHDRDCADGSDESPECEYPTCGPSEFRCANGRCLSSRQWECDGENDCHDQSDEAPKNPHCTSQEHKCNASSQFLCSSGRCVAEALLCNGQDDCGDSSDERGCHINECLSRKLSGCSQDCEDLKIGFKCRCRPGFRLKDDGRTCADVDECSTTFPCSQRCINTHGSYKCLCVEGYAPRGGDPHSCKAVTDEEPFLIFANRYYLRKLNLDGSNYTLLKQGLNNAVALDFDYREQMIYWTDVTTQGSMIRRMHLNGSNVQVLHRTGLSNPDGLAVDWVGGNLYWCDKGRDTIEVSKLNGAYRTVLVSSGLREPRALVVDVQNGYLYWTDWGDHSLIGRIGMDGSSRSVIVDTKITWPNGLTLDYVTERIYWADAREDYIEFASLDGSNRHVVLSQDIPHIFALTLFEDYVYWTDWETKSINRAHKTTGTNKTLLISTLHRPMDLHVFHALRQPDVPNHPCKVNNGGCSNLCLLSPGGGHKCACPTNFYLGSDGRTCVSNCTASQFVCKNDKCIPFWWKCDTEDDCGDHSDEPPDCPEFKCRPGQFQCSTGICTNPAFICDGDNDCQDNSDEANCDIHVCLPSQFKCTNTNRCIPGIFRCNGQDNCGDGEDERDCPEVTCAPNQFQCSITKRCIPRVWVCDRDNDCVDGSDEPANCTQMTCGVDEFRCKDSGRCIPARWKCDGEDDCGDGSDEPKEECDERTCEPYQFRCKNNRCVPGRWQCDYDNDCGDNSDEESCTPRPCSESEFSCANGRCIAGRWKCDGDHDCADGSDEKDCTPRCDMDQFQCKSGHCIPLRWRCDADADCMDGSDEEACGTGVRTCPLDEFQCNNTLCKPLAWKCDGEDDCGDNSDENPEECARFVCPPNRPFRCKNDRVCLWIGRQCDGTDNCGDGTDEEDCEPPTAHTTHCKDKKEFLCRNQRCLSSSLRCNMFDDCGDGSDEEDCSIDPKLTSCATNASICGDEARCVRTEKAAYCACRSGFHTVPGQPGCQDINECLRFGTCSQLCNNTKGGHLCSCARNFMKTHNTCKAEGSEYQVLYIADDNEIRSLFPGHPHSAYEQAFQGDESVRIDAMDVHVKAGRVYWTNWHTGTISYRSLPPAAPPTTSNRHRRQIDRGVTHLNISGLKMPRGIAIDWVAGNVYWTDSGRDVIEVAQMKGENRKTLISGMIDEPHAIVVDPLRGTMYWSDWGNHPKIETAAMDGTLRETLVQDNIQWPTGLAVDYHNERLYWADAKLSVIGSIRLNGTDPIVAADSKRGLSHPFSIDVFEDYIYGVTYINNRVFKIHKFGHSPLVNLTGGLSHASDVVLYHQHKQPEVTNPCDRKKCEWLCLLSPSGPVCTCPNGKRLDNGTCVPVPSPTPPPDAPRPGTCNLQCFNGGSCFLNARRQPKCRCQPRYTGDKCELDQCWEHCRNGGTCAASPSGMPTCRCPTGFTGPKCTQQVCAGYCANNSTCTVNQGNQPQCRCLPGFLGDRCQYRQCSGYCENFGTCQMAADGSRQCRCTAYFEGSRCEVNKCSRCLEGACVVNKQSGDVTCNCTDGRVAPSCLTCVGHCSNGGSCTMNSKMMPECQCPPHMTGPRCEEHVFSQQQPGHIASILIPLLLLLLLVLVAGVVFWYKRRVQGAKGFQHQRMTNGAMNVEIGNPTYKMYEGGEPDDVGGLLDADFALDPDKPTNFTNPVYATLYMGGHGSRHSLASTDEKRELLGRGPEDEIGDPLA

In the case of “Factor Xa-cleaved FVIII light chain (from UniProt P00451 1741-2351)”, the Kd [1] is reported as 22 nM, the koff [1] is reported as 0.003 s⁻¹ and the kon [1] is reported as 130000 M⁻¹ s⁻¹. It also gave a Kd [2] of 60 nM, a koff [2] of 0.056 s⁻¹ and a kon [2] of 900000 M⁻¹ s⁻¹.

For “Recombinant FVIII C2 domain (from UniProt P00451 2192-2351)”, the Kd [3] was 3400 nM.

“Recombinant FVIII a3-A3-C1 fragment (from UniProt P00451 1668-2191)” showed a Kd [1] of 26 nM, a koff [1] of 0.0041 s⁻¹ and a kon [1] of 160000 M⁻¹ s⁻¹. It also gave a Kd [2] of 74 nM, a koff [2] of 0.08 s⁻¹ and a kon [2] of 1.1e+06 M⁻¹ s⁻¹.

Molecule YFWKVQHHMAPTKDEFDCKA [Synthetic peptide FVIII Tyr^1815-Ala^1834] has an IC50 [4] of 16800 nM.

Work on DGKKWQTYRG (also called 2108-2117) [Synthetic peptide FVIII Asp^2108-Gly^2117] yielded an IC50 [4] of 900000 nM.

B1: scFv KM41 (scFv)
scFv: QVQLLQSAADVKKPGASVKVSCTASGYIFTSYDIDWVRQATGQGLEWMGWMNPNSGNAGFAQKFKGRLTLTRDTSTSTAYMELRRLESEDTAVYYCARSTPHSYSGSGLPPTSDSWGQGTLVTVSSGGGGSGGGGSGGGGSEIVLTQSPGTLSLSPGERATLSCRASQSVSSSFLGWYQQKPGQAPRLLIYGASSRATGIPDRFSGSGSGTDFTLTISRLEPEDFAVYYCQQYGISPLTFGGGTKLEIKRAAAEQKLISEEDLNGAAHHHHHH
notes: Expressed in E. coli TG1
With B1 the binding result [5] was “no binding (tested: 40 nM)” and the “IC50 (read off the curve)” value [6] was ~7 nM.

B2: no binding (tested: 100 nM) (Factor Va light chain).

Work on KNFVKPNETKTYFWK [Synthetic peptide FVIII Lys^1804-Lys^1818] yielded an IC50 [4] of 1900 nM.

With B3 the Kd [1] was 18 nM, the “EC50 (read off the curve)” value [7] was ~20 nM and the Kd [2] was 59 nM.

Source: patent US20080219983A1 (TRIMESTER CUSHION, published 2008)
